Measured values published in IntAct's records for PubMed 15935762.

B1: Protein pop-1 (Caenorhabditis elegans), Q10666 (parent)
chain: MMADEELGDEVKVFRRDEDADDDPMISGETSEQQLADDKKEAVMEAELDGAGRNPSIDVLKSAFPKVEPMSPSFPGLMSHFSPGYSAAALPMFMPLFMNPYAAALRSPSLMFPMGAMSPTFPMFPPSPVYGAAIAAAAAKQHFENMAPLNMRAGHPMNQMGMPPYMHPSSMAPQNVDRRAQGGGKAKKDDHVKKPLNAFMWFMKENRKALLEEIGNNEKQSAELNKELGKRWHDLSKEEQAKYFEMAKKDKETHKERYPEWSARENYAVNKKKTKKRRDKSIPSENNDQKKCRARFGVNNTEMWCKFCKRKKKCEYATDRSGGSDITDSQDGRGTSGAYSSSSESPSPKANAGIALTTQQQQAAMMHTMLMQMRLGSTTGASTHVPSPLASSSAGRSPLDANASDSESDVEEEEDEQIDPTVMQQTHDMLMQESMCTI
partner: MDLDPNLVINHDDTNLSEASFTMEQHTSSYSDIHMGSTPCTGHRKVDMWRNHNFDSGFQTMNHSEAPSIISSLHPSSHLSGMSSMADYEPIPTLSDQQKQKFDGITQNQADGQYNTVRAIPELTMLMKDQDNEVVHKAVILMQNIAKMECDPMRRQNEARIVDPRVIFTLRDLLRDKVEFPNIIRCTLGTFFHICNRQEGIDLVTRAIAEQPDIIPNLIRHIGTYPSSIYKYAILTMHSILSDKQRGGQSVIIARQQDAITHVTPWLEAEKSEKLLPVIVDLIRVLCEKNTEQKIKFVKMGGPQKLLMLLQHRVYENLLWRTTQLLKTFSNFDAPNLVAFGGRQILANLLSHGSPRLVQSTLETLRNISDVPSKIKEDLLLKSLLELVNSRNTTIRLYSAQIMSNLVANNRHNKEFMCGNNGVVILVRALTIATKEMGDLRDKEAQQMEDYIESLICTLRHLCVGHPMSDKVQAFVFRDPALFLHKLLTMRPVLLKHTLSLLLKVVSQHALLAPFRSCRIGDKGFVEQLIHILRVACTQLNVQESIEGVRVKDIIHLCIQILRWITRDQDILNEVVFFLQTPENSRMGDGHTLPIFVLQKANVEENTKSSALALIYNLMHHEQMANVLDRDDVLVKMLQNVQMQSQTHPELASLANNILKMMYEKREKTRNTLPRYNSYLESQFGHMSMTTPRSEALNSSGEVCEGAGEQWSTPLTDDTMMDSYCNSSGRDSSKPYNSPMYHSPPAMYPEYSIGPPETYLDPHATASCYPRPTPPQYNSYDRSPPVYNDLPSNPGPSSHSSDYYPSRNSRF
B2: Protein pop-1 (Caenorhabditis elegans), Q10666 (parent)
chain: B1 chain
partner: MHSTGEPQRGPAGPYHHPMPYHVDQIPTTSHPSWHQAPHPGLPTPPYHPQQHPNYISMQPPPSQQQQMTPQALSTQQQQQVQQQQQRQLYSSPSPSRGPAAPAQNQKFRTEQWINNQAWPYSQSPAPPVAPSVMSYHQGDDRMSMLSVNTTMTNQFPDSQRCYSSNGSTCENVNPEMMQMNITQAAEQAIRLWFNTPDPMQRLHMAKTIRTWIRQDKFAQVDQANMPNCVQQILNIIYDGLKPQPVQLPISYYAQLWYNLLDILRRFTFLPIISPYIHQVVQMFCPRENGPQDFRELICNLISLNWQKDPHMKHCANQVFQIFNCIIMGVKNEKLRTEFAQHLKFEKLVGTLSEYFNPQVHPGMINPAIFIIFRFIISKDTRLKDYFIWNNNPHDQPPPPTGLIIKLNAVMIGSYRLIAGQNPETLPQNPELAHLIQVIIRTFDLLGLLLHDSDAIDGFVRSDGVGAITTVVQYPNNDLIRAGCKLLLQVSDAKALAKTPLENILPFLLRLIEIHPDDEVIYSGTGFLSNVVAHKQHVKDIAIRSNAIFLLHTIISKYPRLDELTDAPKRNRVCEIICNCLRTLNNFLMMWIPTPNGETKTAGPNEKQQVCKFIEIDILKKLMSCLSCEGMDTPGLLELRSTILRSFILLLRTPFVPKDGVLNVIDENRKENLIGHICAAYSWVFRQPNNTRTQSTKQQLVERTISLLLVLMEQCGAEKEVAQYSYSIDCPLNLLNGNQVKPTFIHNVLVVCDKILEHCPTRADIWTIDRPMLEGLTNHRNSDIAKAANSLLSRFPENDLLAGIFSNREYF

Variants of: B1
Conditions: with bar1_caeel bar-1, Q18825

Variant | effect of a mutation on the interaction
D9E | decreasing interaction strength

Variants of: B2
Conditions: with ctnh1_caeel sys-1, Q9XVI2

Variant | effect of a mutation on the interaction
D9E | disrupting interaction strength
